Experimental data: the Human Domainome abundance scans (Beltran et al. 2025)
± gives the uncertainty stated by the source.

B1: Tripartite motif-containing protein 49C, residues 87 to 133; numbered along this chain, P0CI26 (parent)
chain: SSEEQMCGTHRETKKIFCEVDRSLLCLLCSSSQEHRYHRHRPIEWAA

Variants of: B1
Assay: abundance fitness (aPCA) (normalised: wild type 0, dead -1); higher = more abundant; growth selection in yeast, the domain comes from the species named
Conditions: Homo sapiens

| Variant | abundance fitness |
| --- | --- |
| SSEEQMRGTHRETKKIFCEVDRSLLCLLCSSSQEHRYHRHRPIEWAA [C7R] | -0.513 ± 0.12 |
| SSEEQMQGTHRETKKIFCEVDRSLLCLLCSSSQEHRYHRHRPIEWAA [C7Q] | -0.832 ± 0.18 |
| SSEEQMSGTHRETKKIFCEVDRSLLCLLCSSSQEHRYHRHRPIEWAA [C7S] | -0.636 ± 0.091 |
| SSEEQMVGTHRETKKIFCEVDRSLLCLLCSSSQEHRYHRHRPIEWAA [C7V] | -0.722 ± 0.15 |
| SSEEQMAGTHRETKKIFCEVDRSLLCLLCSSSQEHRYHRHRPIEWAA [C7A] | -0.935 ± 0.17 |
| SSEEQMMGTHRETKKIFCEVDRSLLCLLCSSSQEHRYHRHRPIEWAA [C7M] | -0.718 ± 0.27 |
| SSEEQMIGTHRETKKIFCEVDRSLLCLLCSSSQEHRYHRHRPIEWAA [C7I] | -0.797 ± 0.11 |
| SSEEQMHGTHRETKKIFCEVDRSLLCLLCSSSQEHRYHRHRPIEWAA [C7H] | -0.429 ± 0.11 |
| SSEEQMYGTHRETKKIFCEVDRSLLCLLCSSSQEHRYHRHRPIEWAA [C7Y] | -0.788 ± 0.11 |
| SSEEQMPGTHRETKKIFCEVDRSLLCLLCSSSQEHRYHRHRPIEWAA [C7P] | -0.598 ± 0.1 |
| SSEEQMKGTHRETKKIFCEVDRSLLCLLCSSSQEHRYHRHRPIEWAA [C7K] | -1.08 ± 0.27 |
| SSEEQMTGTHRETKKIFCEVDRSLLCLLCSSSQEHRYHRHRPIEWAA [C7T] | -0.861 ± 0.11 |
| SSEEQMWGTHRETKKIFCEVDRSLLCLLCSSSQEHRYHRHRPIEWAA [C7W] | -0.499 ± 0.27 |
| SSEEQMDGTHRETKKIFCEVDRSLLCLLCSSSQEHRYHRHRPIEWAA [C7D] | -0.589 ± 0.17 |
| SSEEQMFGTHRETKKIFCEVDRSLLCLLCSSSQEHRYHRHRPIEWAA [C7F] | -0.957 ± 0.12 |
| SSEEQMCVTHRETKKIFCEVDRSLLCLLCSSSQEHRYHRHRPIEWAA [G8V] | -0.02 ± 0.085 |
| SSEEQMCKTHRETKKIFCEVDRSLLCLLCSSSQEHRYHRHRPIEWAA [G8K] | -0.02 ± 0.11 |
| SSEEQMCCTHRETKKIFCEVDRSLLCLLCSSSQEHRYHRHRPIEWAA [G8C] | -0.017 ± 0.1 |
| SSEEQMCSTHRETKKIFCEVDRSLLCLLCSSSQEHRYHRHRPIEWAA [G8S] | -0.086 ± 0.089 |
| SSEEQMCMTHRETKKIFCEVDRSLLCLLCSSSQEHRYHRHRPIEWAA [G8M] | 0.131 ± 0.096 |
| SSEEQMCTTHRETKKIFCEVDRSLLCLLCSSSQEHRYHRHRPIEWAA [G8T] | -0.042 ± 0.11 |
| SSEEQMCQTHRETKKIFCEVDRSLLCLLCSSSQEHRYHRHRPIEWAA [G8Q] | -0.104 ± 0.14 |
| SSEEQMCATHRETKKIFCEVDRSLLCLLCSSSQEHRYHRHRPIEWAA [G8A] | -0.005 ± 0.085 |
| SSEEQMCWTHRETKKIFCEVDRSLLCLLCSSSQEHRYHRHRPIEWAA [G8W] | -0.199 ± 0.094 |
| SSEEQMCLTHRETKKIFCEVDRSLLCLLCSSSQEHRYHRHRPIEWAA [G8L] | -0.009 ± 0.086 |
| SSEEQMCYTHRETKKIFCEVDRSLLCLLCSSSQEHRYHRHRPIEWAA [G8Y] | -0.082 ± 0.15 |
| SSEEQMCHTHRETKKIFCEVDRSLLCLLCSSSQEHRYHRHRPIEWAA [G8H] | -0.468 ± 0.16 |
| SSEEQMCDTHRETKKIFCEVDRSLLCLLCSSSQEHRYHRHRPIEWAA [G8D] | -0.022 ± 0.11 |

| Variant | abundance fitness |
| --- | --- |
| SSEEQMCNTHRETKKIFCEVDRSLLCLLCSSSQEHRYHRHRPIEWAA [G8N] | -0.159 ± 0.15 |
| SSEEQMCFTHRETKKIFCEVDRSLLCLLCSSSQEHRYHRHRPIEWAA [G8F] | 0.229 ± 0.13 |
| SSEEQMCGIHRETKKIFCEVDRSLLCLLCSSSQEHRYHRHRPIEWAA [T9I] | -0.074 ± 0.12 |
| SSEEQMCGWHRETKKIFCEVDRSLLCLLCSSSQEHRYHRHRPIEWAA [T9W] | -0.339 ± 0.12 |
| SSEEQMCGPHRETKKIFCEVDRSLLCLLCSSSQEHRYHRHRPIEWAA [T9P] | -0.503 ± 0.1 |
| SSEEQMCGAHRETKKIFCEVDRSLLCLLCSSSQEHRYHRHRPIEWAA [T9A] | -0.235 ± 0.091 |
| SSEEQMCGCHRETKKIFCEVDRSLLCLLCSSSQEHRYHRHRPIEWAA [T9C] | -0.565 ± 0.26 |
| SSEEQMCGVHRETKKIFCEVDRSLLCLLCSSSQEHRYHRHRPIEWAA [T9V] | 0.047 ± 0.077 |
| SSEEQMCGYHRETKKIFCEVDRSLLCLLCSSSQEHRYHRHRPIEWAA [T9Y] | -0.183 ± 0.14 |
| SSEEQMCGKHRETKKIFCEVDRSLLCLLCSSSQEHRYHRHRPIEWAA [T9K] | 0.185 ± 0.097 |
| SSEEQMCGMHRETKKIFCEVDRSLLCLLCSSSQEHRYHRHRPIEWAA [T9M] | -0.265 ± 0.099 |
| SSEEQMCGDHRETKKIFCEVDRSLLCLLCSSSQEHRYHRHRPIEWAA [T9D] | -0.395 ± 0.16 |
| SSEEQMCGFHRETKKIFCEVDRSLLCLLCSSSQEHRYHRHRPIEWAA [T9F] | -0.469 ± 0.23 |
| SSEEQMCGQHRETKKIFCEVDRSLLCLLCSSSQEHRYHRHRPIEWAA [T9Q] | 0.057 ± 0.1 |
| SSEEQMCGSHRETKKIFCEVDRSLLCLLCSSSQEHRYHRHRPIEWAA [T9S] | -0.127 ± 0.09 |
| SSEEQMCGGHRETKKIFCEVDRSLLCLLCSSSQEHRYHRHRPIEWAA [T9G] | -0.556 ± 0.091 |
| SSEEQMCGLHRETKKIFCEVDRSLLCLLCSSSQEHRYHRHRPIEWAA [T9L] | 0.151 ± 0.083 |
| SSEEQMCGHHRETKKIFCEVDRSLLCLLCSSSQEHRYHRHRPIEWAA [T9H] | -0.153 ± 0.17 |
| SSEEQMCGRHRETKKIFCEVDRSLLCLLCSSSQEHRYHRHRPIEWAA [T9R] | -0.078 ± 0.079 |
| SSEEQMCGNHRETKKIFCEVDRSLLCLLCSSSQEHRYHRHRPIEWAA [T9N] | -0.417 ± 0.2 |
| SSEEQMCGTQRETKKIFCEVDRSLLCLLCSSSQEHRYHRHRPIEWAA [H10Q] | -0.757 ± 0.19 |
| SSEEQMCGTTRETKKIFCEVDRSLLCLLCSSSQEHRYHRHRPIEWAA [H10T] | -0.772 ± 0.16 |
| SSEEQMCGTYRETKKIFCEVDRSLLCLLCSSSQEHRYHRHRPIEWAA [H10Y] | -0.855 ± 0.16 |
| SSEEQMCGTCRETKKIFCEVDRSLLCLLCSSSQEHRYHRHRPIEWAA [H10C] | -0.523 ± 0.12 |
| SSEEQMCGTVRETKKIFCEVDRSLLCLLCSSSQEHRYHRHRPIEWAA [H10V] | -0.788 ± 0.1 |
| SSEEQMCGTPRETKKIFCEVDRSLLCLLCSSSQEHRYHRHRPIEWAA [H10P] | -0.549 ± 0.13 |
| SSEEQMCGTIRETKKIFCEVDRSLLCLLCSSSQEHRYHRHRPIEWAA [H10I] | -1 ± 0.26 |
